One molecule from patent publication US20220370608A1 (HUMANITAS MIRASOLE S P A, published 2022) can be followed below.

This test addresses T1, receptor of advanced glycation end products (RAGE) on NK cells (human, UniProt Q15109 23-404).
T1 construct: whole, on cells; Endogenous receptor on primary NK cells from healthy donors; also called Receptor for Advance Glycation End product
In words: flow cytometry of RAGE on NK cells treated with rhCHI3L1, and phospho-JNK flow cytometry (binding inferred). The protocol: (a) Dot plots for RAGE expression on NK cells (left) and MFI of RAGE expression on NK cells treated with rhCHI3L1. (b) MFI of lytic granules staining in NKs treated with CHI3L1 (50 ng/ml) or anti-RAGE Blocking antibody (10 ug/ml) for 1 h. (c) effect of RAGE blockade on NK cells cytotoxicity (d) Basal P-JNK levels in NK cells treated with CHI3L1 (e) P-JNK levels in NK cells after 10 min of stimulation by RAGE ligand S100A8/A9 (10 ug/ml) alone or with rhCHI3L1 (100 ng/ml) and (f) P-JNK levels in time during ADCC of NK cells incubated with SKBR3 targets at (5:1) E:T ratio. All plots are representative of at least two
Single-cell suspensions, of blood or from cell culture, were obtained and incubated with Fc receptor-blocking antibody before being stained on ice. Dead cells were excluded by live/dead staining using fixable live/dead stain dyes (Thermofisher scientific). Primary NK cells [from healthy donors, after informed consent] were gated as singlets, CD14neg, FSC−. SSC appropriate for lymphocytes, CD3neg, CD16/CD56 poscells. Intracellular staining was performed using a fixation and permeabilization buffer (BD Bioscience). […] Stained cells were analyzed on FACSCanto II cytometer (BD Biosciences). […] Flow cytometry data were analyzed with FlowJo v10 software (Tree Star).
For orientation: Flow cytometry measures light scatter and fluorescence of single cells or particles in a stream.

T1 sequence (Q15109 23-404): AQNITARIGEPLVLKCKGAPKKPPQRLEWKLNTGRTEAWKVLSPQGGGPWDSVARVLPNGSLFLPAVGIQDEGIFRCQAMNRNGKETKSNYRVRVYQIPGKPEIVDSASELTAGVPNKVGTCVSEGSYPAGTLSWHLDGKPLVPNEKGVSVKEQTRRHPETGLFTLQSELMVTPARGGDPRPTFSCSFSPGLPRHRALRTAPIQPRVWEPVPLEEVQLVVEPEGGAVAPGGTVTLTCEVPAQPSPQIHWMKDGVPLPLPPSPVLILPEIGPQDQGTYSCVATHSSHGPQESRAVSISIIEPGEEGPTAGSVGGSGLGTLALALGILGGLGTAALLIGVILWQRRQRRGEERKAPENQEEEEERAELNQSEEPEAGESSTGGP

B1: recombinant human Chitinase 3-like 1 (rhCHI3L1) (ligand)
chain: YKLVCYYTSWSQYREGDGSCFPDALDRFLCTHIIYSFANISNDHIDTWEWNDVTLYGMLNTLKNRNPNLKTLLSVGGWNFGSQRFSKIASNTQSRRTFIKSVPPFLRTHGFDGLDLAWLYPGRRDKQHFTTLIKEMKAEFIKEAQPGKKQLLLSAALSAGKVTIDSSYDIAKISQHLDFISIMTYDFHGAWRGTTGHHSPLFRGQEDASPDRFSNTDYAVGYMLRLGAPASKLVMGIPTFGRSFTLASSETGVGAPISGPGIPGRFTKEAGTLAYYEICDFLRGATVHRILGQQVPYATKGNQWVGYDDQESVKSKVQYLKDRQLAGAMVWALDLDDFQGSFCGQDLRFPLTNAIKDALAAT
notes: Recombinant protein; also called YKL-40; CHI311
Regarding B1, the binding result is “binds”.
